This is an account of results in patent US20250206841A1 (ADEPT THERAPEUTICS, published 2025).

Test [1] deals with T1, human Trop-2-His protein (human, UniProt P09758 27-274).
T1 construct: extracellular domain; Assay paragraphs say only 'Trop-2-His'; also called hTrop-2; Kactus Cat #TRP-HM121; not shown: His tag
T1 sequence (looked up): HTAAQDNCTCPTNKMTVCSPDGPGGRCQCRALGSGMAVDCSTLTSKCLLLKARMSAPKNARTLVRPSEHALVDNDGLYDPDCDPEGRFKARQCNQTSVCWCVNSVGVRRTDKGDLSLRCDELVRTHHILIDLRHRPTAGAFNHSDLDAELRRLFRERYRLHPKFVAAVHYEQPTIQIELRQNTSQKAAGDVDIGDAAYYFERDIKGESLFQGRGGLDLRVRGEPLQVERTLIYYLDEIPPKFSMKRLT
The test is described as follows: BLI (Gator Prime), LEM supernatant Ab on HFC probe. On the procedure:
(§1) After three times of regeneration and neutralization of HFC probe (Gator, Cat #160003), LEM transfection supernatant samples to be tested in K buffer was diluted 1:1 in K buffer and immobilized onto HFC probe. […] The association and dissociation of human or cynomolgus Trop-2-His antigen from antibody was measured on BLI machine Gator Prime. Affinity was calculated using Gator Bio analysis software. Blank control was used for reference subtraction. 1 μg/ml of Sacituzumab govitecan was used as positive control.
(§2) Table 23 below summarizes the binding affinity of exemplary anti-Trop-2 antibodies in LEM transfection supernatant samples to human and cynomolgus Trop-2 using Gator.

Test [2] concerns the target T2, cynomolgus Trop-2-His protein (cynomolgus, UniProt P09758 27-274 (human entry)).
T2 construct: also called cynmolgus Trop-His; Kactus Cat #TRP-CM121; not shown: His tag
T2 chain: T1 sequence (looked up) with M36V, S67N, G139S, I204V
The test can be described thus: BLI (Gator Prime), LEM supernatant Ab on HFC probe. On the procedure:
as §1, §2

Changes are numbered by the printed parent chain. Where only a bound is given, the exact number is not on record here.

B1: 2H5 (antibody, V domains shown)
VH: QSLEESGGDLVQPGASLTLTCKASGFDLNNYSILWVRQAPGKGLEWIGCIYFSGGSTYYANWAKGRFAISKTSSTTVTLQMTSLTAADTATYFCARDDGTTSYYLNLWGPGTLVTVSS
VL: YDMTQTPASVSEPVGGTVTIKCQASEDIYNLLAWYQQKPGQPPKLLIYAASDLESGVPSRFKGSGSGTEYTLTISDLECADAATYYCQQAYTVGNIDNAFGGGTEVVVK
notes: Rabbit-derived clone; LEM construct: VH + rabbit IgG CH1 + human IgG1 CH2-CH3
As a reminder, the Kd is the equilibrium constant for the complex coming apart. Higher therefore signals lower affinity. By koff is commonly meant a measure of how fast the partners let go of each other. Usually kon stands for the second-order rate constant of association. Take B1: in test [1], the affinity, expressed as Kd, was 0.822 nM; the koff is 0.00027 s⁻¹; the kon is 331000 M⁻¹ s⁻¹. Also, in test [2], the Kd was found to be 0.582 nM, the koff turned out to be 0.00027 s⁻¹ and the kon worked out at 460000 M⁻¹ s⁻¹.

B2: 10D3 (antibody, V domains shown)
VH: B1 VH with S24A, I33M, F52I, S56T, N61S, A68T, T100S
VL: B1 VL with N30R, A49D, E54A, D76G, E78Q, A90G, V93I, A99S
notes: as for B1
In test [1], B2 yielded a Kd of 0.562 nM, a koff of 0.00019 s⁻¹ and a kon of 339000 M⁻¹ s⁻¹. For the same molecule, in test [2], binding was put at a Kd of 0.455 nM, the koff is 0.00019 s⁻¹ and the kon worked out at 454000 M⁻¹ s⁻¹.

B3: 10E12 (antibody, V domains shown)
VH: B1 VH with S32A, I33M, F52I, S56T, Y59F, N61S, K64T
VL: B1 VL with E12A, P13A, N30S, A49D, E54A, A80D, V93I
notes: as for B1
In test [1], B3 returned a Kd of 0.173 nM, a koff of 6.8e-05 s⁻¹ and a kon of 391000 M⁻¹ s⁻¹. In test [2], the Kd amounted to 0.168 nM, the koff is 6.8e-05 s⁻¹ and the kon came to 605000 M⁻¹ s⁻¹.

B4: 10F12 (antibody, V domains shown)
VH: B1 VH with K22R, I33M, F52I, S56T, Y59F, N61S, K64T, T100S
VL: B1 VL with E12A, P13A, N30S, Y48F, A49D, E54A, A80D, V93I
notes: as for B1
Consider B4, for which, in test [1], the Kd was 0.173 nM, the koff came to 6.8e-05 s⁻¹ and the kon was found to be 391000 M⁻¹ s⁻¹. For the same molecule, in test [2], the Kd was at most 0.132 nM, the koff was about 5.62e-05 s⁻¹ and the kon stood at 426000 M⁻¹ s⁻¹.

B5: 8H2 (antibody, V domains shown)
VH: B1 VH with S32A, I33M, F52I, S56T, Y59F, N61S, K64T, T100S
VL: B1 VL with E12A, P13A, N30S, A49D, E54A, D76A, A80D, V93I, A99T
notes: as for B1
In test [1], B5 displayed a Kd of 0.227 nM, a koff of 9.6e-05 s⁻¹ and a kon of 423000 M⁻¹ s⁻¹. In test [2], this molecule returned a dissociation constant Kd of 0.221 nM, a koff of 9.6e-05 s⁻¹ and a kon of 677000 M⁻¹ s⁻¹.

B6: 12G6 (antibody, V domains shown)
VH: QEQLKESGGGLVQPGGSLTLSCKASGFDFNNYGVSWVRQAPGKGLEWIGYIYPAYHNTYYATWVNGRFTISSHNAQNTLYLQLNTLTAADTATYFCARDAGNTDYNFNLWGPGTLVTVSS
VL: DVVMTQTPASVEVAVGGTVTIKCQASEDIESYLAWYQQKPGQPPKLLIYEASKLASGVSSRFSGGGYGTEFTLTISGVECADAATYYCQQALTIGNVDNPFGGGSEVVVK
notes: as for B1
In test [1], B6 registered a Kd of 1.22 nM, a dissociation rate constant (koff) of 0.00047 s⁻¹ and a kon of 386000 M⁻¹ s⁻¹. In test [2], this molecule displayed a Kd of 0.911 nM, a koff of 0.00047 s⁻¹ and a kon of 603000 M⁻¹ s⁻¹.

B7: 3A4 (antibody, V domains shown)
VH: B6 VH with K5V, A24G, N31E, G49A, Y55F, N84H, N102T
VL: B6 VL with E12S, V13A, T20S, K22N, S31N, G65S
notes: as for B1
In test [1], B7 returned a dissociation constant Kd of 1.38 nM, a koff of 0.00069 s⁻¹ and a kon of 500000 M⁻¹ s⁻¹. Further, in test [2], binding was characterised by a dissociation constant (Kd) of 1.17 nM, the koff came to 0.00069 s⁻¹ and the kon turned out to be 729000 M⁻¹ s⁻¹.

B8: 3E9 (antibody, V domains shown)
VH: B6 VH with T19K, G49A, Y55F, T58R, T62N, H73D, L79V, T85S, N102S, N106K
VL: B6 VL with E12S, V13A, E50D, K53T, G65S, A91D, I94V, K110E
notes: as for B1
In test [1], B8 displayed a Kd of 0.675 nM, a koff of 0.00038 s⁻¹ and a kon of 568000 M⁻¹ s⁻¹. In test [2], this molecule yielded a Kd of 0.538 nM, a koff of 0.00038 s⁻¹ and an association rate constant (kon) of 888000 M⁻¹ s⁻¹.

B9: 69H10 (antibody, V domains shown)
VH: B6 VH with T19K, N31K, G49A, Y55F, N102T
VL: DVVMTQTASPVSAAVGGTVTIKCQASQSIYSYLSWYQQKPGQPPKLLIYEASKLASGVSSRFSGSGYGTEFTLTISGVECADAATYYCQQALTVGNVDNPFGGGSEVVVK
notes: as for B1
As for B9, in test [1], binding was characterised by a dissociation constant (Kd) of 0.989 nM, the koff worked out at 0.00046 s⁻¹ and the kon stood at 465000 M⁻¹ s⁻¹. In test [2], this molecule came in with a dissociation constant Kd of 0.893 nM, a koff of 0.00053 s⁻¹ and a kon of 592000 M⁻¹ s⁻¹.

B10: 2H3 (antibody, V domains shown)
VH: B6 VH with V12G, A100T, N102T
VL: B6 VL with I94V
notes: as for B1
For the molecule B10, in test [1], the equilibrium dissociation constant (Kd) came out at 0.269 nM, the off-rate constant (koff) was determined as 0.00013 s⁻¹ and the association rate constant (kon) turned out to be 488000 M⁻¹ s⁻¹. In addition, in test [2], the affinity, expressed as Kd, was 0.113 nM; the koff is 0.00013 s⁻¹; the kon amounted to 727000 M⁻¹ s⁻¹.

B11: 9A5 (antibody, V domains shown)
VH: B6 VH with G49A, A54T, N102G
VL: B6 VL with V13A, K22N, E27Q, D28S
notes: as for B1
On to B11, for which, in test [1], binding was put at a Kd of 0.767 nM, the koff came out at 0.00041 s⁻¹ and the kon turned out to be 529000 M⁻¹ s⁻¹. Further, in test [2], the Kd worked out at 0.698 nM, the koff worked out at 0.00041 s⁻¹ and the kon is 919000 M⁻¹ s⁻¹.

B12: 62A10 (antibody, V domains shown)
VH: QSLVESGGGLVQPEGSLTLTCKASGFDFNNYAVTWVRQAPGEGLEYIGFIGIRGHIYYANWAKGRFTISKTSSTTMTLQMTSLTVADTATYFCARGGLWTGNSYFDLWGPGTLVTVSS
VL: YDMTQTPASVEVAVGGTVTINCQASESISRYLAWYQQKPGQSPKPLIYRASTLASGVPSRFQGSGSGTEYTLTISDLECADAATYYCQQGYGYSTVDNAFGGGTEVVVK
notes: as for B1
For B12, in test [1], binding was put at a Kd of 0.959 nM, the koff amounted to 0.00051 s⁻¹ and the kon was 532000 M⁻¹ s⁻¹. Besides, in test [2], the Kd was 1.27 nM, the koff came to 0.00092 s⁻¹ and the kon came to 726000 M⁻¹ s⁻¹.

B13: 70E2 (antibody, V domains shown)
VH: QSLEESGGGLVKPGGTLTLTCTVSGFDFSNYAMTWVRQAPGKGLEYIGFIGIRGNIYYANWAKGRFTISKTSSTTVTLQMTSLTVADTATYFCARGGLWTGNSYFDLWGPGTLVTVSS
VL: B12 VL with A13P, S27N, S29N, S42P, S51A, Q62K, T73S, D97G
notes: as for B1
B13: in test [1], binding was put at a Kd of 0.871 nM, the koff was 0.00038 s⁻¹ and the kon worked out at 430000 M⁻¹ s⁻¹. In test [2], this molecule had a Kd of 0.892 nM, a koff of 0.00059 s⁻¹ and a kon of 657000 M⁻¹ s⁻¹.

B14: 71F10 (antibody, V domains shown)
VH: B13 VH with K12Q, G15A, T16S, N30S, Y31N, K42E
VL: B12 VL with E11S, V12A, S42P, Q62K, S66T, E69D, D97G
notes: as for B1
Regarding B14, in test [1], the affinity, expressed as Kd, was 0.696 nM; the off-rate (koff) came to 0.00032 s⁻¹; the kon stood at 459000 M⁻¹ s⁻¹. In test [2], this molecule had a Kd of 0.755 nM, a koff of 0.00054 s⁻¹ and a kon of 721000 M⁻¹ s⁻¹.

B15: 73C2 (antibody, V domains shown)
VH: B13 VH with M33V, K42E, I50V, R53Y, N55D, I56F, T81P
VL: B12 VL with S29N, P39R, S42P, S51A, Q62K, D97G
notes: as for B1
In test [1], B15 returned a Kd of 3.85 nM, a koff of 0.0011 s⁻¹ and an association rate constant (kon) of 284000 M⁻¹ s⁻¹. Besides, in test [2], binding was put at a Kd of 4.63 nM, the koff amounted to 0.0017 s⁻¹ and the kon came to 364000 M⁻¹ s⁻¹.
